Data as given in patent US12134663B2, “Cationic peptides for activating Lck” (Interk Peptide Therapeutics Limited, priority 2018, dated 2024).
“Also recorded” adds a separate entry of the source. Where a SMILES comes first, the peptide text is derived from it. Where no end group is shown, it is not given here. [ ]: non-standard residue; d: D form. ξ: configuration not given here. ξGly(decyl) = CCCCCCCCCCC(N)C(=O)O; 2Adod = 2-amino-dodecanoic acid

Columns and labels:
Lck [1] = target: T1, Lck (Homo sapiens, UniProt P06239); assay: Lck Activity above control (1 µM) | Lck
T1 construct: purchased Eurofins Pharma Discovery Services UK Limited
Procedure: (§1) Table printed on a drawing sheet, FIG. 2
Head of the field: Lck Activity above control (1 µM) | Lck
(§2) First copying reader's note: Kinase activity above control for each Src family kinase at 1 µM peptide; the cell for IK00800/Fgr is printed as '%' without a digit.
Where the first naming reader finds the target: head: Lck Activity above control (1 µM) | Lck

Fgr = assay: Lck Activity above control (1 µM) | Fgr
Procedure: as §1
Head of the field: Lck Activity above control (1 µM) | Fgr
as §2
Where the first naming reader finds the target: head: Lck Activity above control (1 µM) | Fgr

K562 cells = assay: Specific cytotoxicity of Calcein-AM stained K562 cells in PBMC co-culture; assay type: cell-based; settings: PBMC pre-treated 0.08-1.25 μM 48 hrs, 5:1 ratio, 4 hrs; greater than IFN-α 2A; data not shown
Procedure: In brief, PBMC were incubated for 48 hrs then co-cultured together with Calcein AM stained K562 cells stimulated with or without human recombinant IFN-α 2A (5 ng/mL) for 4 hrs. Supernatants were assessed for Calcein green fluorescence intensity using the GloMax® Discover and percentage specific cytotoxicity was calculated. Data shown indicates mean percentage specific cytotoxicity +/− SEM, n=4. Data were analysed by paired t test in comparison to the vehicle control, *p<0.05.
PBMC were also pre-treated with or without the Lck activating polypeptides RSKAKNPLY-RRRRRRRRR (SEQ ID NO: 24, IK14800), RVKVKVVVV-RRRRRRRRR (SEQ ID NO: 58, IK15800), RSKAKNPLY-RRRRRRRRR-(2Adod)4-NH2 (SEQ ID NO: 65, IK14804) and RVKVKVVVV-RRRRRRRRR-(2Adod)4-NH2 (SEQ ID NO: 66, IK15804) (0.08-1.25 μM) for 48 hrs, then co-cultured with Calcein AM stained K562 cells at a 5:1 ratio and incubated for a further 4 hrs. Supernatants were assessed for Calcein green fluorescence intensity using the GloMax® Discover and percentage specific cytotoxicity was calculated. Data shown indicates mean percentage specific cytotoxicity +/− SEM, n=4. Data were analysed by repeated measures two-way ANOVA with Holm-Sidak's post-test comparing peptide treatment with vehicle control, *p<0.05, **P<0.01, ***P<0.001, ****p<0.0001.

Lck [2] = target: T1, Lck; assay: In vitro Lck activation kinase study (Eurofins); assay type: biochemical; settings: for Lck activation (in words): peptide 1 μM where stated
Procedure: The ability of polypeptides of the present invention to activate Lck was examined in vitro. Lck is member of the Src family of tyrosine kinases. […] All results in are percentage Lck activity relative to control (100%).
Test polypeptides were assessed at a concentration of 1.0 μM.
The ability of polypeptides of the present invention to activate Src family kinases was examined in vitro. Kinase activation studies utilising peptides were carried out as described in Example 1, and all kinase activity values are shown as percentage relative to control.
The ability of polypeptides comprising both lysine and arginine to activate Lck in vitro was examined. Lck activation studies utilising peptides were carried out as described in Example 1, and all kinase activity values are shown as percentage relative to control.

wild-type Jurkat cells = assay: IL-2 secretion in stimulated wild-type Jurkat cells (ELISA); assay type: cell-based, human; settings: biotinylated anti-CD3, anti-CD28, avidin; 48 h exposure
Procedure: In brief, wild-type Jurkat cells (an immortalised line of human T lymphocyte cells) were stimulated by exposure to biotinylated anti-CD3 antibody in the presence of anti-CD28 antibody and avidin. During the culture period (48 hours or 72 hours) cells were exposed to test polypeptides. Cell supernatant was assayed for IL-2 at the end of 48 or 72 hours using a standard commercially available ELISA kit as described above.
In brief, cells were seeded at 1 million cells per well (12 well plate, 2 mL volume) and stimulated with Biotin-CD3, CD28, and avidin (5:5:1.25 μg). The cells were then treated with IK14804, and then incubated for 48 hours at 37° C. The supernatant (100 uL, n=3), was then analyzed for IL-2 content.
In brief, wild-type Jurkat cells (am immortalised line of human T lymphocyte cells) were stimulated by exposure to biotinylated anti-CD3 antibody in the presence of anti-CD28 antibody and avidin. Cells were seeded at 1 million cells per well (12 well plate, 2 mL volume) and stimulated with Biotin-anti-CD3, anti-CD28, and avidin (5:5:1.25 μg). Cells were treated with the test peptides and then incubated for 48 hours at 37° C. The supernatants (100 ul, n=3), were then analysed for IL-2 and IL-12 content. During the culture period (48 hours) cells were exposed to test polypeptide RSKAKNPLYR-(2Adod)4-NH2 (SEQ ID NO: 128). Cell supernatant was assayed for IL-2 and IL-12 at the end of 48 hours using standard commercially available ELISA kit as described above.

Lck(h) = target: T2, Lck(h) (Homo sapiens, UniProt P06239); assay: Western blot of Lck phosphorylation (4G10 and anti-pY394 antibodies); assay type: biochemical; settings: peptide 1 and 10 μM, with ATP, 40 minutes
T2 construct: purchased Eurofins Pharma Discovery Services UK Limited
Procedure: Western blot studies were performed by Eurofins Pharma Discovery Services UK Limited (Dundee, United Kingdom). […] Reactions were allowed to proceed for 40 minutes at room temperature before being stopped by the addition of SDS-sample buffer. In each case the Lck enzyme was diluted to yield 20 ng per 25 μl reaction. Appropriate controls in the absence of compound and peptide were also run as well as an untreated sample of both the Lck(h) and Lck(h) activated kinases. The resulting samples were then subjected to SDS-PAGE and western blot analysis using the antibodies 4G10 (anti-phospho-tyrosine antibody) (see FIG. 3) and anti-pY394 Lck (R&D Systems MAB7500) (see FIG. 2). An additional blot using the secondary detection antibody (anti-mouse-HRP) was also performed. The membranes were stained by Ponceau S to verify sample loading and effective protein transfer. The 4G10 antibody is a general anti-phospho-tyrosine antibody and there are several tyrosine residues in Lck but only one auto-phosphorylating tyrosine residue, i.e., at position Y394. […] Samples were as follows (numbers correspond to the lanes on the gel): • 1. Molecular weight markers • 2. Standard Lck • 3. Standard Lck+peptide substrate+ATP (no test peptide) • 4. Standard Lck−peptide substrate+ATP (no test peptide) • 5. Standard Lck+ATP+10Arg peptide (SEQ ID NO: 7, IK00100; 1 μM) (no peptide substrate) • 6. Standard Lck+ATP+10 Arg peptide (SEQ ID NO: 7, IK00100; 10 μM) (no peptide substrate) • 7. Standard Lck+ATP+8 Arg peptide (SEQ ID NO: 4, IK00800; 1 μM) (no peptide substrate) • 8. Standard Lck+ATP+8 Arg peptide (SEQ ID NO: 41K00800; 10 μM) (no peptide substrate) • 9. 10 Arg (SEQ ID NO: 7, IK00100) (10 μM) (test peptide only) • 10. 8 Arg (SEQ ID NO: 4, IK00800) (10 μM) (test peptide only)
The steps of the western blot protocol were as below: • SDS-PAGE gel: 50 minutes at 200V • Western blot transfer: 90 minutes at 25V • Membrane: Nitrocellulose Pre-Cut Blotting Membranes 0.2 μm pore size (LC2000 (Life Tech)) • Ponceau stain: 0.1% Ponceau S (w/v) in 5% acetic acid • The membrane was blocked with 10 mL PBST and 10% BSA for 1 hour before application of primary and secondary antibodies. Primary Antibodies: • 1. Anti-4G10 (Millipore 05-777) 1/1000 in PBST with overnight incubation at 4° C. followed by washing with 4×20 mL PBST. • 2. Anti-pY394 Lck (R&D Systems) 1/2500 in PBST with overnight incubation at 4° C. followed by washing with 4×20 mL PBST. Secondary Antibody:
Anti-mouse-hrp (Sigma A5278) 1/5000 in PBST followed by washing with 4×20 mL PBST for 5 hours on a spiral shaker at room temperature. Detection was performed via SuperSignal ELISA Pico Chemiluminescent Substrate—37070 (Pierce).

T1 sequence (P06239 whole entry): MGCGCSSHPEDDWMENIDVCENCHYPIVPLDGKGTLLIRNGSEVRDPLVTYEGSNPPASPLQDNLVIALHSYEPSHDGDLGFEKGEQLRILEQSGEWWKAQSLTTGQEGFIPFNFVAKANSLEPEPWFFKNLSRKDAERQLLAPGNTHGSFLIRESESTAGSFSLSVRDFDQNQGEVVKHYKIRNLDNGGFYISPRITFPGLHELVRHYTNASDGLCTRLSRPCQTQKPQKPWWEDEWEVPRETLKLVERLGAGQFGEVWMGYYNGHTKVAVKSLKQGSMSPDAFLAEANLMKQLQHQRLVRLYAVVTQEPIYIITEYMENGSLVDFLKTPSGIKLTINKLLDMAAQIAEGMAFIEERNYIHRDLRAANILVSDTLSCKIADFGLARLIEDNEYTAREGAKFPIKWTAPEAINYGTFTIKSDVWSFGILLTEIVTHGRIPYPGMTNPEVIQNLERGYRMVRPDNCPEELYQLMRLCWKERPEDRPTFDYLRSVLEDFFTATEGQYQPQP
T2 sequence (P06239 whole entry): as above

Compound	Lck Activity above control (1 µM) | Lck (Lck [1])	Lck Activity above control (1 µM) | Fgr (Fgr)	percentage of specific cytotoxicity (K562 cells)	other results
HHHHHHHHHH [10His]	0%	0%	–	–
RSKAKNPLY-RRRRRRRRR-NH2 (RSKAKNPLYRRRRRRRRR-NH2) [IK14800]	578%	0%	–	–
RRRRRRRR [IK00800] [listing 1 of 2 here]	126%	–	–	–
CCCCCCCCCCC(NC(=O)C(CCCCCCCCCC)NC(=O)C(CCCCCCCCCC)NC(=O)C(CCCCCCCCCC)NC(=O)[C@H](CCCNC(=N)N)NC(=O)[C@H](CCCNC(=N)N)NC(=O)[C@H](CCCNC(=N)N)NC(=O)[C@H](CCCNC(=N)N)NC(=O)[C@H](CCCNC(=N)N)NC(=O)[C@H](CCCNC(=N)N)NC(=O)[C@H](CCCNC(=N)N)NC(=O)[C@H](CCCNC(=N)N)NC(=O)[C@H](CCCNC(=N)N)NC(=O)[C@@H](NC(=O)[C@@H](NC(=O)[C@@H](NC(=O)[C@@H](NC(=O)[C@H](CCCCN)NC(=O)[C@@H](NC(=O)[C@H](CCCCN)NC(=O)[C@@H](NC(=O)[C@@H](N)CCCNC(=N)N)C(C)C)C(C)C)C(C)C)C(C)C)C(C)C)C(C)C)C(N)=O (some centres unmarked) [IK15804, RVKVKVVVVR-RRRRRRRR-(2Adod)4-NH2] (H-RVKVKVVVVRRRRRRRRR[ξGly(decyl)][ξGly(decyl)][ξGly(decyl)][ξGly(decyl)]-NH2)	–	–	increased the percentage of specific cytotoxicity	–
RRRRRRRRRR [IK00100] [listing 1 of 2 here]	389%	0%	–	–
RVKVKVVVVRRRRRRRRR-NH2 [IK15800, RVKVKVVVV-RRRRRRRRR]	–	–	increased the percentage of specific cytotoxicity	–
RSKAKNPLYR (RSKAKNPLYR-{2Adod-2Adod-2Adod-2Adod-NH2}) [IK14000]	–	–	–	Lck activation (in words) (Lck [2]): do not activate Lck; Lck activation (in words) (Lck [2]; listed as RSKAKNPLYR): no Lck activation; IL-2 secretion relative to control (wild-type Jurkat cells): increase IL-2 secretion
RVKVKVVVV-RRRRRRRRR (RVKVKVVVVRRRRRRRRR) [IK15800]	593%	0%	–	–
RRRRRRRR [IK00800] [listing 2 of 2 here]	–	–	–	phosphorylation at Y394 of Lck (anti-pY394 antibody) (Lck(h); listed as 8 Arg): significant increase in the level of phosphorylation; level of phosphorylation on Lck (anti-phospho tyrosine 4G10 antibody) (Lck(h); listed as 8Arg): significant increase in the level of phosphorylation; also recorded: increased with increasing concentrations; phosphorylation at Y394 of Lck (anti-pY394 antibody) (Lck(h); listed as 8Arg): Increased auto-phosphorylation was associated with increasing concentration
RSKAKNPLYRRRRRRRRR-NH2 [IK14800, RSKAKNPLY-RRRRRRRRR-NH2]	–	–	increased the percentage of specific cytotoxicity	Lck activation (Lck [2]; peptide 1 μM, relative to control): 496%
RRRRRRRRRR [IK00100] [listing 2 of 2 here]	–	–	–	phosphorylation at Y394 of Lck (anti-pY394 antibody) (Lck(h); listed as 10 Arg): significant increase in the level of phosphorylation; level of phosphorylation on Lck (anti-phospho tyrosine 4G10 antibody) (Lck(h); listed as 10Arg): significant increase in the level of phosphorylation; also recorded: increased with increasing concentrations; phosphorylation at Y394 of Lck (anti-pY394 antibody) (Lck(h); listed as 10Arg): Increased auto-phosphorylation was associated with increasing concentration
CCCCCCCCCCC(NC(=O)C(CCCCCCCCCC)NC(=O)C(CCCCCCCCCC)NC(=O)C(CCCCCCCCCC)NC(=O)[C@H](CCCNC(=N)N)NC(=O)[C@H](CCCNC(=N)N)NC(=O)[C@H](CCCNC(=N)N)NC(=O)[C@H](CCCNC(=N)N)NC(=O)[C@H](CCCNC(=N)N)NC(=O)[C@H](CCCNC(=N)N)NC(=O)[C@H](CCCNC(=N)N)NC(=O)[C@H](CCCNC(=N)N)NC(=O)[C@H](CCCNC(=N)N)NC(=O)[C@H](Cc1ccc(O)cc1)NC(=O)[C@H](CC(C)C)NC(=O)[C@@H]1CCCN1C(=O)[C@H](CC(N)=O)NC(=O)[C@H](CCCCN)NC(=O)[C@H](C)NC(=O)[C@H](CCCCN)NC(=O)[C@H](CO)NC(=O)[C@@H](N)CCCNC(=N)N)C(N)=O (some centres unmarked) [IK14804, RSKAKNPLYR-RRRRRRRR-(2Adod)4-NH2] (H-RSKAKNPLYRRRRRRRRR[ξGly(decyl)][ξGly(decyl)][ξGly(decyl)][ξGly(decyl)]-NH2)	–	–	increased the percentage of specific cytotoxicity	–
RSKAKNPLY [IK94000]	–	–	–	Lck activation (in words) (Lck [2]): no Lck activation; Lck activation (in words) (Lck [2]; listed as IK09400): do not activate Lck; IL-2 secretion relative to control (wild-type Jurkat cells): increase IL-2 secretion
